Test results published in patent US11994512B2, “Single-cell genomic methods to generate ex vivo cell systems that recapitulate in vivo biology with improved fidelity” (Massachusetts Institute of Technology, priority 2018, dated 2024).

System: intracellular proteome of ENR+CD and ENR organoids
Experiment: LC-MS/MS TMT proteomics of ENR+CD versus ENR organoids
Format: cell-based, C57BL/6 mice
Conditions: for change: up = enriched in ENR+CD, down = enriched in ENR, FDR<0.05 and log fold change cut-off
[1] = protein abundance, ENR+CD versus ENR organoids, aggregate of the four sample pairs
[2] = protein abundance, ENR+CD versus ENR organoids, replicate M1-1, log2 ratio
[3] = protein abundance, ENR+CD versus ENR organoids, replicate M1-2, log2 ratio
[4] = protein abundance, ENR+CD versus ENR organoids, replicate M2-1, log2 ratio
[5] = protein abundance, ENR+CD versus ENR organoids, replicate M2-2, log2 ratio

B1: Q3UYK3 (protein, UniProt Q3UYK3 1-1264, looked up)
chain: MWVNPEEVLLANALWITERANPYFILQRRKGHGGDGGGGGGLAGLLVGTLDVVLDSSARVAPYRILYQTPDSLVYWTIACGGSRKEVTEHWEWLEQNLLQTLSIFENENDVTTFVRGKIQGIIAEYNKINDVKEDEDTEKFKEAIVKFHRLFGMPEEEKLVNYYSCSYWKGRVPRQGWMYLSINHLCFSSFLMGREAKLVIRWVDITQLEKNATLLLPDMIKVSTRSSEHFFSVFLNINETFKLMEQLANIAMRQLLDNEGFEQDRSLPKLKKKSPKKVSALKRDLDARAKSERYRALFRLPKDEKLDGHTDCTLWTPFNKMHILGQMFVSTNYICFTSKEENLCSLIIPLREVTIVEKADSCSVLPSPLSISTRNRMTFLFANLKDRDFLVQRISDFLQQTTSRIYSDKEFSGSCNSSDDEVYSRPSSLVSSSPQRSTSSDADGERPFNLNGNSVPTATQTLMTMYRRRSPEEFNPKLAKEFLKEQAWKIHFAEYGQGICMYRTEKTRELVLKGIPESMRGELWLLLSGAINEKATHPGYYEGLVEKSMGKYNLATEEIERDLHRSLPEHPAFQNEMGIAALRRVLTAYAFRNPNIGYCQAMNIVTSVLLLYAKEEEAFWLLVALCERMLPDYYNTRVVGALVDQGVFEELARDYVPQLYDCMQDLGVISTISLSWFLTLFLSVMPFESAVVVVDCFFYEGIKVIFQLALAVLDANVDKLLNCKDDGEAMTVLGRYLDSVTNKDSTLPPIPHLHSLLSDDVGPYPAVDIFRLIGTSYEKFGTIRADLIEQMRFKQRLKVIQTLEDTTKRNVVRTIVTETSFTIDELEELYALFKAEHLTSCYWGGSSNALDRHDPSLPYLEQYRIDFEQFKGMFVLLFPWACGTHSDVLASRLFQLLDENGDSLINFREFVSGLSAACHGDLTEKLKLLYKMHVLPEPSCDQDEPDSAFEATQYFFEDITPECTHVVGLDSRGKQSADDGFVTVSLKQDRGKRANSQENRNYLKLWTAENKSKSKTAKDLPKLNQGQFIELCKTMYNMFSEDPNEQELYHATAAVTSLLLEIGEVGKFFITQPAKEDAVPGPPCGQAIPGMLFPKKGSSQSYVVESTEPLTASLAVDSEEHSLGGQMEDIKLEDSSPRDNGACSSMLISDDDTKDDSSMSSYSVLSAGSHEEDKLHCEDIGEDTVLVRSSQGRATLPRSSSLDRDWAITFEQFLASLLTEPALVRYFDKPVCMMARVTSAKNIRMMGKPLTSASDYEISALSG
modifications: full-length
Average logFC [1]: −1.25 | M1-1 Log2 Median Normalized [2]: −0.639 | M1-2 Log2 Median Normalized [3]: −1.148 | M2-1 Log2 Median Normalized [4]: −1.5035 | M2-2 Log2 Median Normalized [5]: −1.709 | change: down

B2: Q3UW68 (protein, UniProt Q3UW68 1-665, looked up)
chain: MAHDAETSVVKFKNQDFRTLRDHCLSRGQLFIDDTFPAAASSIGEKLLRGKHLSKLEWKRPTSKDLPFYPPHFILEGASRFDIHQGIAGDCWFLAALGSLTQNPQCLQKILMDQSYSHQYAGIFQFRFWQCGQWVEVVIDDQLPVIGDNFLFVHPRGGNKEFWPCLMEKAYAKLLGSYSQLHYGYLPDALVDLTGGVVTIINLHSSPFDLLTTVKTAIQAGSMVACATENGLTEEAKVMENGLVSQHAYTVTGAEKIQYQGRWEDIIRLWNPWGKTEWKGRWKDGSKEWRETHDPRKSQLYENKEDGEFWMSCQDFQENFSCLFICNQIPITMDHGVTPNESWRQMRFTNQVISRNRAGGHGRDMQYVFSVQEHTAGNNVVVAFTIMPQSLNTEEERFPLQFQVFKVPQFQNVQGRLPPAFFSPFRSAAQGTKYVSKCNFTKSFHLNPGTYVVVTTANGKEVEFLLRIFLKMPDKHRDPSSNFNLRALKESLPENGSRNSISYTYMDQGLDIDATQLQSLLNQEFLTGPPGDTFSLDQCQSIMALMDLKVNGRLDQEEFARLRSRLIHCQHIFQSIQRRPGVLLSSDLWKVIENTDFLVGIFISSELLSLMALRYSDSSGRVSFPTLVCFLIRLETMAKAFRNLSKDGKGIYLTETEWMNLVMYS
modifications: full-length
Average logFC [1]: −1.164 | M1-1 Log2 Median Normalized [2]: −1.402 | M1-2 Log2 Median Normalized [3]: −1.492 | M2-1 Log2 Median Normalized [4]: −1.0855 | M2-2 Log2 Median Normalized [5]: −0.676 | change: down

B3: Q4V9W2 (protein, UniProt Q4V9W2 1-153, looked up)
chain: MAVPGCNKDNVRAGCRKCGYPGHLTFECRNFLRVDPKRDIVLDVSSTSSEDSDEENEELNKLQALQEKRINEEEEKKKEKSREKIKLKKRRKRSYSSATEEDSAKQKKQKYQKKEKKKEKKNKSKKGKHHKKEKKKRKKEKRSSPYHSELTKK
modifications: full-length
Average logFC (ENR+CD versus ENR organoids, sample pairs in aggregate (n=4, 2 technical replicates from two biological donors)): −1.36 | M1-1 Log2 Median Normalized (protein abundance ratio ENR+CD versus ENR organoids, sample pair M1-1, LC-MS/MS TMT proteomics): −1.902 | M1-2 Log2 Median Normalized (protein abundance ratio ENR+CD versus ENR organoids, sample pair M1-2, LC-MS/MS TMT proteomics): −0.824 | M2-1 Log2 Median Normalized (protein abundance ratio ENR+CD versus ENR organoids, sample pair M2-1, LC-MS/MS TMT proteomics): −1.2515 | M2-2 Log2 Median Normalized (protein abundance ratio ENR+CD versus ENR organoids, sample pair M2-2, LC-MS/MS TMT proteomics): −1.464 | change: down

B4: Q3V3I2 (protein, UniProt Q3V3I2 1-354, looked up)
chain: MGSGISSESKESARRSKELEKKLQEDAERDARTVKLLLLGAGESGKSTIVKQMKIIHKNGYSKQECMEFKAVIYSNTLQSILAIVKAMATLGIDYVNPRSREDQEQLHSMANTLEDGDMTPQLAEIIKRLWGDPGIQACFERASEYQLNDSAAYYLNDLDRLTAPGYVPNEQDVLHSRVKTTGIIETQFSFKDLNFRMFDVGGQRSERKKWIHCFEGVTCIIFCAALSAYDMVLVEDEEVNRMHESLHLFNSICNHKYFATTSIVLFLNKKDLFQEKVAKVHLSICFPEYTGPNTFEDAGNYIKNQFLDLNLKKEDKEIYSHMTCATDTQNVKFVFDAVTDIIIKENLKDCGLF
modifications: full-length
Average logFC [1]: −1.949 | M1-1 Log2 Median Normalized [2]: −1.715 | M1-2 Log2 Median Normalized [3]: −1.092 | M2-1 Log2 Median Normalized [4]: −2.2685 | M2-2 Log2 Median Normalized [5]: −2.719 | change: down

B5: Q3V1V3 (protein, UniProt Q3V1V3 1-845, looked up)
chain: MSSKQEIMDDQRFRRVSKDPRFWEMPEKERKVKIDKRFRAMFHDKKFKLNYAVDKRGRPISHSTTEDLKRFYDLSDSDSDLSDEESKILSQKKAKQKKKQTKKEAKSIEKPIEEKKKETKKTDQKDSINKHDLNNSERVQKMKNSQKPQKIDSEISPKKDNEEFLQNKKKKRGTTDLSVEALPKGKLRTKDSSTSEMVKSSTMSSSKAKREKQSVVPVIMAKDNDGKMPDEDALEEDSDSASELGSDEESEDEIISDGKTSADEDESEEEDEEEEEDSEEEEEEEEEDESDSGPDLARGKGNVETSSEDEDDLADLFPEEPGFEHAWRELDKDAPRADEITRRLAVCNMDWDRLKAKDLLALFNSFKPKGGVVFSVKIYPSEFGKERMKEEQVQGPVELLSIPEDAPEKDWASREKLRDYQFKRLKYYYAVAECDSPETASKIYEDCDGLEFESSCSFIDLRFIPDDITFDDEPKDVALEVDLTAYKPKYFTSAAMGTSTVEITWDETDHERITTLNRKFKKDELLDMDFQAYLASSSEDEEEVEEAPEGEEGVNIGEDGKTKKSQKDDEEQIAKYRQLLQVIQEKEKKGKENDMEMEIKWVPGLKESAEEMVKNKLEGKDKLTPWEQFLEKKKEKKRLKKKQKALAEEDSEDELPSDVDFNDPYFAEEVKKIGIKKKSMKSAKDSASSEEETDLEKQKAEMALLVMDEEEDSKKHFNYDKIVEHQNLSKKKKKQLMKKKELVEDDFEVNVSDARFQAMYTSHLFNLDPSDPNFKKTKAMEKILEEKARHRERKEELLIQAVERAQQDTGKPTQKQPMDPALSMLIKSVKNKTEQFQARKKQRVK
modifications: full-length
Average logFC [1]: −1.244 | M1-1 Log2 Median Normalized [2]: −1.45 | M1-2 Log2 Median Normalized [3]: −0.805 | M2-1 Log2 Median Normalized [4]: −0.9155 | M2-2 Log2 Median Normalized [5]: −1.805 | change: down
